Reference: IntAct's records for PubMed 19684601

B1: Myocyte-specific enhancer factor 2A (Homo sapiens), Q02078-1 (parent)
chain: MGRKKIQITRIMDERNRQVTFTKRKFGLMKKAYELSVLCDCEIALIIFNSSNKLFQYASTDMDKVLLKYTEYNEPHESRTNSDIVEALNKKEHRGCDSPDPDTSYVLTPHTEEKYKKINEEFDNMMRNHKIAPGLPPQNFSMSVTVPVTSPNALSYTNPGSSLVSPSLAASSTLTDSSMLSPPQTTLHRNVSPGAPQRPPSTGNAGGMLSTTDLTVPNGAGSSPVGNGFVNSRASPNLIGATGANSLGKVMPTKSPPPPGGGNLGMNSRKPDLRVVIPPSSKGMMPPLSEEEELELNTQRISSSQATQPLATPVVSVTTPSLPPQGLVYSAMPTAYNTDYSLTSADLSALQGFNSPGMLSLGQVSAWQQHHLGQAALSSLVAGGQLSQGSNLSINTNQNISIKSEPISPPRDRMTPSGFQQQQQQQQQQQPPPPPQPQPQPPQPQPRQEMGRSPVDSLSSSSSSYDGSDREDPRGDFHSPIVLGRPPNTEDRESPSVKRMRMDAWVT

Variants of: B1
Conditions: with sumo2_human SUMO2, P61956
sumo2_human SUMO2, P61956, sequence (P61956 whole entry): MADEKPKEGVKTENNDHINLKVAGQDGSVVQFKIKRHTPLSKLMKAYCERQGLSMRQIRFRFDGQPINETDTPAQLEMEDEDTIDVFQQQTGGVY

effect of a mutation on the interaction	Variant
disrupting interaction	K403R
disrupting interaction	S408A
